Measurements: patent US20260328755 (published 2026)

Target: T1, TL1A (TNFSF15) (human, UniProt O95150)
T1 chain: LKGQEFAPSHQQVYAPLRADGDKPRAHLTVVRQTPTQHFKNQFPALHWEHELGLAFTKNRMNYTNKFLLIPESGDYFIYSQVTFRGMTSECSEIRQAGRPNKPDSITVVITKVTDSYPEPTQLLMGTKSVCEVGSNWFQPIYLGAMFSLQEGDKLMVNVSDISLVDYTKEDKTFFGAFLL
Assay: ELISA

B1: heavy chain 512 antibody (S228P, L235E) (antibody)
chain 1: not shown
chain 2: EIVLTQSPGTLSLSPGERATLSCRASSSVSYMYWYQQKPGQAPRPLIYATSNLASGIPDRFSGSGSGTDFTLTISRLEPEDFAVYYCQQWEGNPRTFGGGTKLEIKRTVAAPSVFIFPPSDEQLKSGTASVVCLLNNFYPREAKVQWKVDNALQSGNSQESVTEQDSKDSTYSLSSTLTLSKADYEKHKVYACEVTHQGLSSPVTKSFNRGEC
EC50: 324 pM

B2: heavy chain 513 antibody (S228P, F234A, L235A) (antibody)
chain 1: not shown
chain 2: B1 chain 2
EC50: 252 pM
